Article PMC11215065, “The HHV-6B U20 glycoprotein binds ULBP1, masking it from recognition by NKG2D and interfering with natural killer cell activation” (Frontiers in Immunology, 2024)

Target: T1, Soluble U20 extracellular domain (sU20) of HHV-6B (HHV-6B, nine N-linked glycosylation sites with high mannose glycans; after EndoH a single GlcNAc at each site)
T1 construct: HHV-6B U20 glycoprotein, extracellular domain; Dimer in solution when alone (SEC-MALS, SEC-SAXS); Used glyco-intact or EndoH-treated, as told for each assay; also called soluble recombinant U20; source: stably transduced HEK293 GnTI cells, purified from supernatant (Nickel-NTA, cation exchange, SEC); in some cases treated with EndoH; not shown: 6xHIS, C-terminal, kept
Experiment: SPR; Biacore 3000; biotinylated ULBP1-Fc (1000-2500 RU) on a Neutravidin coated CM5 chip; U20 injected at 0.125-32 μM; CD200 receptor Fc flow cell subtracted; equilibrium fit, one site specific binding, apparent; 20°C
Conditions: both partners purified

B1: ULBP1-Fc (Fc fusion)
chain: GWVDTHCLCYDFIITPKSRPEPQWCEVQGLVDERPFLHYDCVNHKAKAFASLGKKVNVTKTWEEQTETLRDVVDFLKGQLLDIQVENLIPIEPLTLQARMSCEHEAHGHGRGSWQFLFNGQKFLLFDSNNRKWTALHPGAKKMTEKWEKNRDVTMFFQKISLGDCKMWLEEFLMYWEQMLDPTKPPSLAPG
modifications: biotin on the BirA recognition sequence (for SPR)
  Kd: ~230 nM
